In assay [1] the target is T1, Recombinant human CD73 protein (human).
T1 chain: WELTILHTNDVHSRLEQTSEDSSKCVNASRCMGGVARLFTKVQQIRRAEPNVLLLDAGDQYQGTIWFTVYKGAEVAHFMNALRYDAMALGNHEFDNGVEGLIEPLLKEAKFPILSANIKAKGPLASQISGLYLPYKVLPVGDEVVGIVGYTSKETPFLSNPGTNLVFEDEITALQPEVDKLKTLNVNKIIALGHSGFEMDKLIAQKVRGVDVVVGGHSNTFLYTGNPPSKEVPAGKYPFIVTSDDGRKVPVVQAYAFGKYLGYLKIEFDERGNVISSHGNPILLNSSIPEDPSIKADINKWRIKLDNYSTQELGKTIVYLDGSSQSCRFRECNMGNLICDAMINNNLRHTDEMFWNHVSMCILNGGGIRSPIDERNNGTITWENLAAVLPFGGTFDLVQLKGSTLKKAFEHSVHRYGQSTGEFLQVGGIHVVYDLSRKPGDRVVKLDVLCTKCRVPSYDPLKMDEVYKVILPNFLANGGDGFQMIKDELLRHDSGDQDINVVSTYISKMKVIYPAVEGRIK

For assay [2], the target named is T2, Human CD73 on the cell surface (human).
T2 chain: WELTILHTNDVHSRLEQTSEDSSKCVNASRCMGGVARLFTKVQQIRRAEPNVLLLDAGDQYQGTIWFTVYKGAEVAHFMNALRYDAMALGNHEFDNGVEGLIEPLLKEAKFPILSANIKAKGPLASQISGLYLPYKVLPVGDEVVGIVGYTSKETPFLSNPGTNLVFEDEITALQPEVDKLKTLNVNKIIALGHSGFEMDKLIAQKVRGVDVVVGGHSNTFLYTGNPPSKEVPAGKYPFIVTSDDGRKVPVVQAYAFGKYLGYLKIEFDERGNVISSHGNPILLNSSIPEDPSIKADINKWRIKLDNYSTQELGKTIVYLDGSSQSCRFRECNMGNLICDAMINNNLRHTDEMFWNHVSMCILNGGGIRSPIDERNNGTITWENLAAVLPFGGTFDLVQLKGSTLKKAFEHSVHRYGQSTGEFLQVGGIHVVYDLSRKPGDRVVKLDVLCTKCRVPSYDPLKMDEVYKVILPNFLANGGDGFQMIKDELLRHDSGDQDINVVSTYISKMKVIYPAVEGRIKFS

Assay [3] addresses T2, Human CD73 on the cell surface. The assay is described as follows: flow cytometry on SK-OV-3 cells. The procedure: Human ovarian cancer cell line (SK-OV-3 cells) which endogenously expressed human CD73 on the surface were stained with different concentrations of IgG control, chimeric anti-CD73 (101-Mu-Chimeric, or 101-Chi) and humanized anti-CD73 antibodies (Hu101-25 and Hu101-28) at […] for 30 mins. Then, the cells were washed with PBS three times, followed by incubation with APC-labeled anti-human Fc specific antibody (Invitrogen) at 4° C. for 30 mins. Binding was measured using an FACSCanto (Becton-Dickinson), and the results are presented in FIG. 8 (see also the table below).
(A flow cytometer gives signals particle by particle.)

For assay [4], the target named is T1, Recombinant human CD73 protein. In words: Biacore T200, antibody captured by anti-human Fc IgG, antigen as analyte, 1:1 model. The procedure:
For the binding assay, the Biacore T200 system was used through human antibody capture approach. The anti-human Fc IgG were immobilized on CM5 sensor chip according to the manufactory's instruction. The test antibody was injected and captured by the immobilized anti-human Fc IgG. And then serial concentrations of antigen was individually injected, and the binding profile was recorded for each concentration antigen analyte, respectively. The assay system was regenerated by injection of 10 mM Glycine-HCl pH 1.5 for 30 seconds. The running buffer was HBS-EP+ (10 mM HEPES, pH 7.4, 150 mM NaCl, 3 mM EDTA and 0.05% P20). The assay temperature was 25° C., and the association and dissociation time were 180 and 600 seconds, respectively.
(Surface plasmon resonance follows binding to a sensor surface in real time, without labels.)

Assay [5] shares this target.
The target in assay [6] is T2, Human CD73 on the cell surface.
Assay [7] concerns the target T1, Recombinant human CD73 protein. The assay is described as follows: ELISA with recombinant human CD73 (2 µg/ml). For orientation: ELISA stands for enzyme-linked immunosorbent assay.
In assay [8] the target is T2, Human CD73 on the cell surface. In words: flow cytometry on SK-OV-3 cells.
Assay [9] has as its target T1, Recombinant human CD73 protein. The assay is described as follows: Biacore T200, antibody captured, recombinant human CD73 as analyte, 1:1 model. The procedure: FIG. 3 plots the binding kinetics of 101-Mu and mAb1 with recombinant human CD73 (recombinant human CD73 was set as an analyte with serial concentrations (100, 50, 25, 12.5, 6.25, 3.125 nM)). The binding kinetics assay of antibody to antigen was performed using Biacore T200 system through a human antibody capture approach. The […] were immobilized on CM5 sensor chip according to the manufactory's instruction. The test antibody was injected and captured by the immobilized anti-human Fc IgG. And then serial concentrations of the antigen was individually injected, and the binding profile was recorded for each concentration antigen analyte, respectively. The assay system was regenerated by injection of 10 mM Glycine-HCl pH 1.5 for 30 seconds. The running buffer was HBS-EP+ (10 mM HEPES, pH 7.4, 150 mM NaCl, 3 mM EDTA and 0.05% P20). The assay temperature was 25° C., and the association and dissociation time were 180 and 600 seconds, respectively.

Assay [10] shares this target.
Assay [11] has the same target. In words: ELISA, plate-coated recombinant human CD73.
In assay [12] the target is T2, Human CD73 on the cell surface.

Changes are numbered by the printed parent chain. Like-named read-outs stand apart in the source and are kept apart here.

As a reminder, the EC50 is the concentration that produces a half-maximal response. What is called Kd is the constant that tells how readily two partners part at equilibrium. Usually koff stands for the first-order rate constant of dissociation. As usually defined, the kon is the rate constant with which the complex forms.

B1: Hu101-25 (antibody, V domains shown)
VH: EVQLQESGPGLVKPSETLSLTCAVSGYSISSGYYWNWIRQPPGKGLEWIGYINYGGSNGYNPSLKSRVTISRDTSKNQFSLKLSSVTAADTAVYYCARDYDAYYEALDDWGQGTTVTVSS
VL: EIVLSQSPATLSLSPGERATLSCRASSRVNYMHWYQQKPGQSPRPWISATSNLASGVPARFSGSGSGTSYTLTISSLEPEDFAVYYCQQWSSNPPTFGGGTKVEIK
In the case of B1, in [1], the IC50 (nM), inhibition of recombinant human CD73 enzymatic activity was determined as 4.72 nM and the Max. Inhibition (%), recombinant human CD73 enzymatic activity amounted to 99%. In assay [2], this molecule registered an IC50 (nM), inhibition of cellular CD73 enzyme activity on SK-OV-3 cells of 2.98 nM and a Max. Inhibition (%), cellular CD73 enzyme activity on SK-OV-3 cells of 100%. In assay [3], this molecule displayed an EC50 of 2.38 nM. For the same molecule, in [4], the Kd was found to be 0.747 nM, the koff was determined as 5.51e-05 s⁻¹ and the kon is 73700 M⁻¹ s⁻¹.

B2: Hu101-28 (antibody, V domains shown)
VH: B1 VH with S30T, G45K, I49M, V68I
VL: B1 VL
B2: in assay [1], the IC50 (nM), inhibition of recombinant human CD73 enzymatic activity was 9.35 nM and the Max. Inhibition (%), recombinant human CD73 enzymatic activity amounted to 98%. Moreover, the IC50 of inhibition of recombinant human CD73 activity (CellTiter-Glo) in assay [5] was 2.84 nM. In addition, in [6], the IC50 of inhibition of cell-bound CD73 activity on MDA-MB-231 cells (CellTiter-Glo) was 8.21 nM and the IC50 of inhibition of cell-bound CD73 activity on SK-OV-3 cells (CellTiter-Glo) was determined as 2.52 nM. In addition, in assay [2], the IC50 (nM), inhibition of cellular CD73 enzyme activity on SK-OV-3 cells was 2.52 nM and the Max. Inhibition (%), cellular CD73 enzyme activity on SK-OV-3 cells came to 100%. The molecule also gave an EC50 in assay [3] of 1.35 nM. The EC50 in [7] was 0.0887 nM. Moreover, in assay [8], the EC50 was 0.67 nM.

B3: 101-Mu (antibody, V domains shown)
VH: DVQLQESGPGLVKPSQSLSLTCSVTGYSITSGYYWNWIRQFPGNKLEWMGYINYGGSNGYNPSLKSRISITRDTSKNQFFLKLNSVTTEDTATYYCARDYDAYYEALDDWGQGTSVTVSS
VL: QIVLSQSPAILSASPGEKVTMTCRASSRVNYMHWYQQKPGSSPKPWISATSNLASGVPARFSGSGSGTSYSLTISRVETEDAATYYCQQWSSNPPTFGGGTKLEIK
In the case of B3, in assay [9], the Kd was 0.421 nM, the koff was determined as 3.42e-05 s⁻¹ and the kon amounted to 81300 M⁻¹ s⁻¹. Moreover, the IC50 of inhibition of CD73 enzymatic activity (CellTiter-Glo luminescence, residual CD73 activity) in assay [10] was 3.89 nM. In addition, the EC50 in [11] is 0.08 nM. In assay [12], this molecule registered an IC50 of inhibition of cellular CD73 enzyme activity on SK-OV-3 cells (CellTiter-Glo luminescence) of 4.62 nM. Also, in assay [8], the response was half-maximal at 0.54 nM (EC50).

B4: 101-Mu chimera (antibody, V domains shown)
VH: B3 VH
VL: B3 VL
For the molecule B4, in assay [1], the IC50 (nM), inhibition of recombinant human CD73 enzymatic activity was found to be 4.25 nM and the Max. Inhibition (%), recombinant human CD73 enzymatic activity was found to be 98%. In assay [2], the IC50 (nM), inhibition of cellular CD73 enzyme activity on SK-OV-3 cells amounted to 1.82 nM and the Max. Inhibition (%), cellular CD73 enzyme activity on SK-OV-3 cells is 100%. This molecule also returned an EC50 in [3] of 1.35 nM.

The record behind these values is US10584169B2, “Anti-CD73 antibodies and uses thereof” (I-MAB BIOPHARMA US LIMITED, dated 2020).
